What was measured:
Assay type in all cases: in vivo
[1] = system: transgenic maize plants; experiment: saflufenacil tolerance of transgenic maize plants (spray, grade of pesticide damage); conditions: for tolerance to saflufenacil: maize; for The grade of pesticide damage/plant: number of plants of grade 0 / The grade of pesticide damage/plant: number of plants of grade 1 / The grade of pesticide damage/plant: number of plants of grade 2 / The grade of pesticide damage/plant: number of plants of grade 3: 7 DAT, 16 maize plants per genotype
[2] = system: transgenic maize plants; experiment: oxyfluorfen tolerance of transgenic maize plants (spray, grade of pesticide damage); conditions: for tolerance to oxyfluorfen: maize; for The grade of pesticide damage/plant: number of plants of grade 0 / The grade of pesticide damage/plant: number of plants of grade 1 / The grade of pesticide damage/plant: number of plants of grade 2 / The grade of pesticide damage/plant: number of plants of grade 3: 7 DAT, 16 maize plants per genotype
[3] = system: transgenic maize plants; experiment: flumioxazin tolerance of transgenic maize plants (spray, grade of pesticide damage); conditions: for The grade of pesticide damage/plant: number of plants of grade 0 / The grade of pesticide damage/plant: number of plants of grade 1 / The grade of pesticide damage/plant: number of plants of grade 2 / The grade of pesticide damage/plant: number of plants of grade 3: 7 DAT, 16 maize plants per genotype; for tolerance to flumioxazin: maize, flumioxazin at different concentrations (120 and 240 g ai/ha)
[4] = saflufenacil at four-fold field concentration (100 g ai/ha)
[5] = saflufenacil at two-fold field concentration (50 g ai/ha)
[6] = saflufenacil 50 g ai/ha (2x field concentration)
[7] = saflufenacil 100 g ai/ha (4x field concentration)
[8] = oxyfluorfen at four-fold field concentration (720 g ai/ha)
[9] = oxyfluorfen at two-fold field concentration (360 g ai/ha)
[10] = oxyfluorfen 360 g ai/ha (2x field concentration)
[11] = oxyfluorfen 720 g ai/ha (4x field concentration)
[12] = flumioxazin 120 g ai/ha (2x field concentration)
[13] = flumioxazin 240 g ai/ha (4x field concentration)

Molecule	tolerance to saflufenacil [1, 4]	tolerance to saflufenacil [1, 5]	The grade of pesticide damage/plant: number of plants of grade 0 [1, 6]	The grade of pesticide damage/plant: number of plants of grade 1 [1, 6]	The grade of pesticide damage/plant: number of plants of grade 2 [1, 6]	The grade of pesticide damage/plant: number of plants of grade 3 [1, 6]	The grade of pesticide damage/plant: number of plants of grade 0 [1, 7]	The grade of pesticide damage/plant: number of plants of grade 1 [1, 7]	The grade of pesticide damage/plant: number of plants of grade 2 [1, 7]	The grade of pesticide damage/plant: number of plants of grade 3 [1, 7]	tolerance to oxyfluorfen [2, 8]	tolerance to oxyfluorfen [2, 9]	The grade of pesticide damage/plant: number of plants of grade 0 [2, 10]	The grade of pesticide damage/plant: number of plants of grade 1 [2, 10]	The grade of pesticide damage/plant: number of plants of grade 2 [2, 10]	The grade of pesticide damage/plant: number of plants of grade 3 [2, 10]	The grade of pesticide damage/plant: number of plants of grade 0 [2, 11]	The grade of pesticide damage/plant: number of plants of grade 1 [2, 11]	The grade of pesticide damage/plant: number of plants of grade 2 [2, 11]	The grade of pesticide damage/plant: number of plants of grade 3 [2, 11]	also measured
PPO12B: nucleotide sequence encoding protoporphyrinogen oxidase PPO12, maize common codon usage bias (nucleic acid, The nucleotide sequence of PPO12B) DNA: ATGAAGAAGGCGCTGTTTTTATATTCAAGTCGTGAGGGCCAAACAAAAAAAATATTGAACTACATTGAAGGTGAATTGTCCAATTTTGAGTGCGAGCTCGTCGACCTCCACACGCTGGACGCCATTGATTTCTCGGTCTATGACAGGGTTTTGATTGGAGCAAGCATACGGTACGGCCACCTAAACAAGAAACTTTATCAATTCATTGAGAATAACCGCCAGCAGCTGGAAAATCATACCAAGGTGGCCTTCTTCTGTGTAAATCTTACTGCAAGGAAGGAAGATCAAGGCAAGGACACCCCTGAAGGGAGCGTCTACATCCAGAAGTTCCTGAAAAAATCTCCCTGGCAGCCAAAACTTATCGGGGTGTTCGCTGGCGCGCTCTACTACCCGAGATATGGTTTTTTTGACAAGATGATGATCAAGCTCATCATGACGCTGACAGATGGAGAGACTGATACTACAAAGGAGGTGGAGTACACCAACTGGAAGAAAGTTTCCCTCTTCGCCAAGAAGTTTGCTGAGCTTTGA	high-resistant tolerance	high-resistant tolerance	16	0	0	0	16	0	0	0	high-resistant tolerance	high-resistant tolerance	16	0	0	0	16	0	0	0	The grade of pesticide damage/plant: number of plants of grade 0 [3, 12]: 16; The grade of pesticide damage/plant: number of plants of grade 1 [3, 12]: 0; The grade of pesticide damage/plant: number of plants of grade 2 [3, 12]: 0; The grade of pesticide damage/plant: number of plants of grade 3 [3, 12]: 0; The grade of pesticide damage/plant: number of plants of grade 0 [3, 13]: 16; The grade of pesticide damage/plant: number of plants of grade 1 [3, 13]: 0; The grade of pesticide damage/plant: number of plants of grade 2 [3, 13]: 0; The grade of pesticide damage/plant: number of plants of grade 3 [3, 13]: 0; tolerance to flumioxazin [3]: high-resistant tolerance
PPO6B: nucleotide sequence encoding protoporphyrinogen oxidase PPO6, maize common codon usage bias (nucleic acid, The nucleotide sequence of PPO6B) DNA: ATGTCAAGTCCCAACGGGAAGTACCTTATGCTGTATAGCACGACTGATGGACACACCAAGACAATAATGGACACCATGGCGAAGCACATTATGGAAGAGGCCAAAGTTCAGTGCGACGTCGTAGACATGAGGGACGGGGACAAGTATGAACTTGCGGCTTACGAGAAGGTCATGCTCGGCGCCTCCATAAGGTACGGCTTCTTCAGCCGCACCTTGCATACATATACTACCCATCATGTTGATGAGCTTAACTCCATGCCATCGGCATTCTTTGGTGTTAATTTAACGGCGCGGAAAACTAGCAAGAACACAGCCATGACCAATGCTTATACACGGAAATTCCTGGATCAATCTATGTGGGTGCCACAGCTGAGTGGGGTCTTCGCCGGTGCACTCTGGTACCCCCGCTACAACTTTTTTGATCGAGTGATGATCCAGTTCATCATGAAGGTGACGGGCGGCGAAACAAATACTACAAAAGAGATCGTCTACACGGACTGGGATGCAGTGCACAAGTTTGCTACTGACTTCGTCCAACTCCCTGCCACCGCCATTCCAAGATCTAAACCTGCTACGTCGGTGCCGCCGGCGTCAGTAGCAAACTATGATAATGGTGCTCGTGTTGCGCTGGTGGTGGTTGGAATTTCTGCAGCCATCATCTTCGGCCGCAGGCTAATTTTGGCCAAGAGATTTTGA	high-resistant tolerance	high-resistant tolerance	16	0	0	0	16	0	0	0	high-resistant tolerance	high-resistant tolerance	16	0	0	0	16	0	0	0	The grade of pesticide damage/plant: number of plants of grade 0 [3, 12]: 16; The grade of pesticide damage/plant: number of plants of grade 1 [3, 12]: 0; The grade of pesticide damage/plant: number of plants of grade 2 [3, 12]: 0; The grade of pesticide damage/plant: number of plants of grade 3 [3, 12]: 0; The grade of pesticide damage/plant: number of plants of grade 0 [3, 13]: 16; The grade of pesticide damage/plant: number of plants of grade 1 [3, 13]: 0; The grade of pesticide damage/plant: number of plants of grade 2 [3, 13]: 0; The grade of pesticide damage/plant: number of plants of grade 3 [3, 13]: 0; tolerance to flumioxazin [3]: high-resistant tolerance
PPO1B: nucleotide sequence encoding protoporphyrinogen oxidase PPO1, maize common codon usage bias (nucleic acid, The nucleotide sequence of PPO1B) DNA: ATGAAAGCGTTGGTTCTTTACAGTACAAGAGATGGTCAGACCCACGCCATTGCGAGCTATATCGCAAACTGCATGAAGGAGAAGTATGAATGTGACGTCATTGATCTCTTGCACGCGCAGCATGTCACCCTTAGCCGCTACGACAAGGTCCTTGTTGGGGCATCGATACGCTATGGCCATTTCAACGCCGTGCTGGACAAATTTGTTAAGCAGAATATACAACAGCTGAACTCCATGCCTTCTGCATTCTTCGCGGTAAATCTGACCGCTCGTAAGCCAGAAAAAAGGACACCACAAACAAATTCATACGTCAGAAAGTTCCTCCTAGGAACGCCGTGGAAGCCCGCCATGTGCGGTGTTTTTGCTGGCGCCTTGCGATACCCTCGGTATCGGTGGGTGGACAAGGTGATGATCCAATTAATCATGAGGATGACGGGGGGCGAGACTGATACTTCTAAAGAAGTGGAGTACACTGATTGGGAGCAGGTGAAAAAATTTGCTGAGGACTTCGGAAAGCTCTCCTACAAGAAGACGCTGTGA	high-resistant tolerance	high-resistant tolerance	16	0	0	0	16	0	0	0	high-resistant tolerance	high-resistant tolerance	16	0	0	0	16	0	0	0	The grade of pesticide damage/plant: number of plants of grade 0 [3, 12]: 16; The grade of pesticide damage/plant: number of plants of grade 1 [3, 12]: 0; The grade of pesticide damage/plant: number of plants of grade 2 [3, 12]: 0; The grade of pesticide damage/plant: number of plants of grade 3 [3, 12]: 0; The grade of pesticide damage/plant: number of plants of grade 0 [3, 13]: 16; The grade of pesticide damage/plant: number of plants of grade 1 [3, 13]: 0; The grade of pesticide damage/plant: number of plants of grade 2 [3, 13]: 0; The grade of pesticide damage/plant: number of plants of grade 3 [3, 13]: 0; tolerance to flumioxazin [3]: high-resistant tolerance
